# Test results: the supplement of paper PMC9170038
# Tested on: MS2 coat protein
# Assay: apparent KD of MS2 coat protein; designed switch direction (-1 OFF switch, 1 ON switch): -1; higher = weaker reporter binding
# Procedure, shortened: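 Transcription of designed RNA switches on Illumina chips was done by stalled E. coli RNA polymerase. SNAP-549-labelled MS2 coat protein was then titrated in doubling steps from 0.7 or 1.5 nM to 3 µM, with steps of 0.8–1.5 h at the lowest and 10–20 min at the highest concentration. The per-design median over clusters of curve-fitted normalised fluorescence is reported as apparent KD.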
# [1] = input ligand: microRNA oligo, concentration not stated
# [2] = Eterna round: R95, input ligand: FMN 200 uM
# [3] = Eterna round: R95, input ligand: microRNA oligo, concentration not stated
# [4] = Eterna round: R95, input ligand: none
Sequence,apparent KD of MS2 coat protein (input ligand: FMN 200 uM) [nM],apparent KD of MS2 coat protein (input ligand: none) [nM],other results
"GCUUGUGGGCAAGGAUAUCCUACGUUGUUCUGGUUCGUGUCUGUCACAUGAGGAUCACCCAUGUGGGAGAAGGUGCAUUUGGGU [Design 59] (Eterna round: R96, puzzle: Exclusion NG 2)",17.9,18,apparent KD of MS2 coat protein [1]: 13.8 nM
GGAAAGCAAGGAUAUACAAGGAAACGAUGGAAAGUAGAGAGACAUGAGGAUCACCCAUGUAGAAGGUGCGAGAG [JR_Exclu2_Sub037] (puzzle: Exclusion 2),,,apparent KD of MS2 coat protein [2]: 36.9 nM; apparent KD of MS2 coat protein [3]: 24.9 nM; apparent KD of MS2 coat protein [4]: 25.3 nM
GGAAAGUGAGGAUAUGGUAAUUUAAUUAUUAAUUAAUUAAUCCAGAAGGCACAUGAGGAUCACCCAUGUAAAGG [Mat - Exclusion 4 - D92] (puzzle: Exclusion 4),,,apparent KD of MS2 coat protein [3]: 30.7 nM
"GGAACUGGAGGAUAUACAUGAGGAUCACCCAUGUAUAGAUAUGGUUAUUAGCCUCAUAGUAGAAGGUUAGUGGC [EX3 C.4] (Eterna round: R97, puzzle: Exclusion 3)",21.6,20.1,
"GGACCGUAAGGAUAUGGCACGAAUCGACAGUCGAUCUCGAGCUAGAAGGUACAUGAGGAUCACCCAUGUCCGUU [Eternabot (L1) Solution 13] (Eterna round: R97, puzzle: Exclusion 4)",25.4,19.2,
"GGAGGGAAAGUGAGGAUAUCCGGAGGGAAACCUCCGGAGAAGGCACAUGAGGAUCACCCAUGUAAGGAAGGAGG [AK-MS2ROC-r4-Bmoexclusion4-1.1] (Eterna round: R97, puzzle: Brourd's mod of Exclusion 4)",203,135,
GGAUAAGGCGAGGAUAUCCAGAAACCCGACAAAGGAGAAGGCGCAACAUGAGGAUCACCCAUGUGGGUGCAUGU [Xeaormara] (puzzle: Exclusion 6),,,apparent KD of MS2 coat protein [2]: 1080 nM; apparent KD of MS2 coat protein [3]: 254 nM; apparent KD of MS2 coat protein [4]: 280 nM
"GGAUCGAAAGUGAGGAUAUACCUAUGGAUACAUAGGUAGAAGGCACAUGAGGAUCACCCAUGUUCCUACGGUCC [Eli bmx4 4.10] (Eterna round: R97, puzzle: Brourd's mod of Exclusion 4)",114,18.4,
"GGAUCGAAUGUGAGGAUAUGCUGGUCCUUGGAUCAGCAGAAGGCACAUGAGGAUCACCCAUGUCCAAACGGUCC [Eli bmx4 4.44] (Eterna round: R97, puzzle: Brourd's mod of Exclusion 4)",352,525,
"GGAUCGAGUGUGAGGAUAUGCUGGUCCUUGGAUCAGCAGAAGGCACAUGAGGAUCACCCAUGUGAAGACGAUCC [Eli bmx4 4.55] (Eterna round: R97, puzzle: Brourd's mod of Exclusion 4)",340,40.1,
"GGAUCGAGUGUGAGGAUAUGCUGGUCCUUGGAUCAGCAGAAGGCACAUGAGGAUCACCCAUGUGAAGACGAUCC [Mat - Exclusion 4 - JL Mod - D73] (Eterna round: R96, puzzle: Brourd's mod of Exclusion 4)",230,28.7,apparent KD of MS2 coat protein [1]: 23.1 nM
GGAUCGAGUGUGAGGAUAUGCUGGUCCUUGGAUCAGCAGAAGGCACAUGAGGAUCACCCAUGUGAAGACGAUCC [Mat - Exclusion 4 - JL Mod - D73] (puzzle: Brourd's mod of Exclusion 4),,,apparent KD of MS2 coat protein [3]: 21.2 nM
GGAUCGUAUGUCAGGAUAUGCCACUGGAUACAGUGGUAGAAGGGACAUGAGGAUCACCCAUGUCCUACCGAUCC [Fiskers BMX 4 - 50] (puzzle: Brourd's mod of Exclusion 4),,,apparent KD of MS2 coat protein [3]: 12.4 nM
"GGAUUACAUGAGGAUCACCCAUGUCAGGAUAUGAAAGCAUAUGCCGAAAGGCAUAUGCGCAGAAGGGACAAUAU [AK-MS2ROC-r4-exclusion1-3.0] (Eterna round: R97, puzzle: Exclusion 1)",45.7,27.5,
"GGAUUUCCUGAGGAUAUUGCAUCACCCGAUUUAUAAGAAGGCAGAACAUGAGGAUCACCCAUGUGGGUCUCCAG [Bingo-Bango-24] (Eterna round: R97, puzzle: Exclusion 6)",22.9,17.9,
GGCAAUAACGAGGAUAUCGUAUCGGAAACGAUACGAGAAGGUGUAACAUGAGGAUCACCCAUGUUCCUCAAGCC [Fiskers Ex 6 - 8] (puzzle: Exclusion 6),,,apparent KD of MS2 coat protein [3]: 33.9 nM
"GGCACACAUGAGGAUCACCCAUGUGAGGAUAUGAGGCGAUCGUCGAUAGACGAUAGCCUUAGAAGGCACAUGCC [Mat - Exclusion 1 - Eli Mod - D11] (Eterna round: R97, puzzle: Exclusion 1)",45.2,21.2,
"GGCACCGUAGGAUAUUGUGGUGCAGACAUGAGGAUCACCCAUGUUGAUCCGGGACUGCAGCGAGAAGGACGGGAAA [Eternabot (Original) Solution 2] (Eterna round: R97, puzzle: Exclusion 5)",284,344,
"GGCAGACAUGAGGAUCACCCAUGUCAGGAUAUGGUGCGAUCGUCGAAAGACGAUAGCACCAGAAGGGACAUGCC [Eli x1 4.03] (Eterna round: R97, puzzle: Exclusion 1)",30.5,19.1,
"GGCAGACAUGAGGAUCACCCAUGUCAGGAUAUGUGGCGAUCGUCGAAAGACGAUAGCCACAGAAGGGACAUGCC [Eli x1 4.20] (Eterna round: R97, puzzle: Exclusion 1)",40.7,22.4,
"GGCAGGCUAGAGGAUAUGCAUUGGCUUGGCCAAGCAGAAGGCUAGACAUGAGGAUCACCCAUGUGUUCCUUGUG [jl-ex6-4.36 ViennaUCT mod] (Eterna round: R97, puzzle: Exclusion 6)",83.5,93.6,
"GGCAGUCGAGGAUAUACGAUCGUGCUUCGGCACGUAAGAUCACAUGAGGAUCACCCAUGUAGAAGGCGACUGCC [Mod 2 - Jieux - Exclusion 2] (Eterna round: R97, puzzle: Exclusion 2)",214,33.4,
"GGCAUGUAAGGAUAUGCCACCGAGUGCUUUGCGCUCGGUAAGCAGAAGGUACAUGAGGAUCACCCAUGUGAUAA [jl-ex4-4.55 ViennaUCT mod] (Eterna round: R97, puzzle: Exclusion 4)",132,660,
GGCCCACAUGAGGAUCACCCAUGUGAGGAUAUGUUAGUUUCGGCGAAAGCCGAAAUUAACAGAAGGCACAGGCC [JR_Exclusion1_Sub022] (puzzle: Exclusion 1),,,apparent KD of MS2 coat protein [3]: 10.8 nM
"GGCCGUAAUAAGGAUAUCACUAGCUGCGGCUAGUGAGAAGGUAUUACAUGAGGAUCACCCAUGUGGUCAGGCCA [E6/4-B3] (Eterna round: R97, puzzle: Exclusion 6)",1060,284,
"GGCCUACAUGAGGAUCACCCAUGUAAGGAUAUCAAGUCGGGCUCCAAGGAAGCCCAUAUGAGAAGGUAUUUGGG [Eternabot (L2) Solution 32] (Eterna round: R97, puzzle: Exclusion 1)",116,25.3,
